From article PMC6818130

What was measured:
[1] = glycan lost
[2] = confocal immunofluorescence co-localisation with LAMP1; conditions: glycan lost; control: wild-type GILT
[3] = Western blot, steady-state level, Tet-induced 293 cells; conditions: glycan lost; control: wild-type GILT

Gamma-interferon-inducible lysosomal thiol reductase (GILT, IFI30): N63A
decreases: other: restriction of viral entry [1] | localisation_or_trafficking [2] | expression_or_secretion [3]

Gamma-interferon-inducible lysosomal thiol reductase (GILT, IFI30): N95A
decreases: other: restriction of viral entry [1] | localisation_or_trafficking [2] | expression_or_secretion [3]

Gamma-interferon-inducible lysosomal thiol reductase (GILT, IFI30): N108A
decreases: other: restriction of viral entry [1] | localisation_or_trafficking [2] | expression_or_secretion [3]
